Results published in publication PMC9287425, “Hepatic non-parenchymal S100A9-TLR4-mTORC1 axis normalizes diabetic ketogenesis” (Nature Communications, 2022).

B1: recombinant human S100A9, P06702 1-114 (natural protein)
chain: MTCKMSQLERNIETIINTFHQYSVKLGHPDTLNQGEFKELVRKDLQNFLKKENKNEKVIEHIMEDLDTNADKQLSFEEFIMLMARLTWASHEKMHEGDEGPGHHHKPGLGEGTP
B2: recombinant murine S100A9 (natural protein, UniProt P31725 1-113, looked up)
chain: MANKAPSQMERSITTIIDTFHQYSRKEGHPDTLSKKEFRQMVEAQLATFMKKEKRNEALINDIMEDLDTNQDNQLSFEECMMLMAKLIFACHEKLHENNPRGHGHSHGKGCGK
notes: cDNA encoding the protein cloned into a pET29+ vector; The homodimeric status is said of r-hS100A9; also called r-mS100A9; not shown: His10, N-terminal, cleaved; MBP, N-terminal, cleaved

What was measured:
[1] = target: T1, recombinant human S100A9 (human), P06702; test: SEC-MALS; 30 µL of protein at 5 mg/mL on a Superose 6 Increase 10/300 GL column; light scattering and refractive index detectors; details: remark: other sources report otherwise
T1 chain: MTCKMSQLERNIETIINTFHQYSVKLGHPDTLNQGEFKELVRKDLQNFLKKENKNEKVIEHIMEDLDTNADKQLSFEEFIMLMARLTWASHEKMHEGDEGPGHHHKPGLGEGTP

[2] = target: the molecule itself; test: SEC; analytical gel filtration, Superose 6 Increase 3.2/300 column

Binder | stoichiometry N [1] | binding result [2]
B1 | 2 | 
B2 |  | binds
